pKd: −log10 of the molar value.
How the values were obtained:
[1] = target: σ^R (sigma factor SigR) from Streptomyces coelicolor, residues 5-227, tagless (Streptomyces coelicolor) (UniProt Q7AKG9); assay: ITC; RsrA mutants (values in Supplementary Table 1); 35 °C, 50 mM Tris pH 7.5, 100 mM NaCl, 2 mM DTT; direct titration for weaker binding mutants (10 μM RsrA in the cell, 100 μM σ^R in the syringe); RsrA preincubated with ZnCl2 and buffer exchanged where zinc was included
[2] = target: σR (residues 5-227) (Streptomyces coelicolor) (UniProt Q7AKG9); assay: ITC; with zinc (+), RsrA preincubated with 1 mM ZnCl2 and buffer exchanged; direct titration for weaker binding mutants (methods: 10 μM RsrA in the cell, 100 μM σR in the syringe); 35 °C, 50 mM Tris pH 7.5, 100 mM NaCl, 2 mM DTT; single binding site model

| fold weakening of binding to σ^R against RsrA [1] [fold] | pKd [2] | Substance |
| --- | --- | --- |
| > 100 |  | RsrA Val54Ala Leu57Ala (from UniProt Q7AKG8 1-105) (natural protein) |
| > 100 |  | RsrA Val75Ala Leu79Ala (from UniProt Q7AKG8 1-105) (natural protein) |
|  | 6.25 | RsrA* C41S (from UniProt Q7AKG8 4-105) (natural protein) |
